Fewer inactive variants are shown than the library holds.
B1: TPR 5TU (parent)
chain: GGAUCUUCUCGAUCUAACAAAAAAGACAAAUCUGCCACAAAGCUUGAGAGCAUCUUCGGAUGCAGAGGCGGCAGCCUUCGGUGGCGCGAUAGCGCCAACGUUCUCAACUAUGACACGCAAAACGCGUGCUCCGUUGAAUGGAGUUUAUCAUG

Variants of: B1
Experiment: polymerase ribozyme fitness, log enrichment relative to wild type (log ratio); higher = more active; in vitro selection for triplet polymerase activity
In short: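 Frozen incubation at −7 °C formed the core of a single, triplicate in vitro selection round applied to PCR-built, transcribed mutant libraries of each subunit of a heterodimeric triplet polymerase ribozyme. Extended constructs were gel-excised, captured with streptavidin beads and amplified by RT-PCR, and input and output libraries were Illumina-sequenced with a filter of ≥10 input reads and ≥1 read per output. Fitness is the logarithm of genotype enrichment relative to wild-type enrichment, with inverse-variance-weighted replicate averaging, and the logarithm is base 2.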

Variant	polymerase ribozyme fitness (log ratio)
GGAUCUUCUCGCUCUAACAAAAAAGACAAAUCUGCCACAAAGCUUGAGAGCAUCUUCGGAUGCUGAGCCGGCAGCCUUCGGUGUCGCGAUAGCGCCAACGUUCUCCACUAUGACACGCAAAACGCGUGCUCCGUUGAAUGGAGUGUAUCAUG [A12C A64U G68C G84U A106C U145G]	≤ -4.2
GGAUCUUCUCGCUCUAACAAAAAAGACAAAUCUGCCACAAAGCUUGAGAGCAUCUUCGGAUGCAGAGGCGGCAGCAUUCGGUGGCGCGAUUGCGCCAACGUUCUCAACUAUGACACGCAAAACGCGUGCUCCGUUGAAUGGAGUUUAUCAUG [A12C C76A A91U]	≤ -4.2
GGAUCUUCUCGCUCUAACAAGAAAGACAAAUCUGCAACAAAGCUUGAAAGCAUCUUCGGAUGCAGAGGCGGCAGCCUUCGGUGGCGCGAUAGAGCCAACGUUCUCAACUAUGACACGCAAAACGCGUGCUCCGUGGAAUGGAGUUUAUCAUG [A12C A21G C36A G48A C93A U135G]	≤ -4.2
GGAUCUUCUCUAGCUAACAAAAAAGACAAAUCUGCCACAAAGCUUGAGAGCAUCUUCGGAUUCAGAGGUGGCAGCCUUCGAUGGCGUGAUAGCGCCAACGUUCUCAACUAUGACACGCAAAACGCGUGCUCCGUUGAAUGGAGUUUAUCAUG [G11U U13G G62U C69U G81A C87U]	≤ -4.2
GGAUCUUCUCGCUCUAACAAAAAAGACAAAUCUGCCACAAAGCUUGAGAGCAUCUUUGGAUGCAGAGGCGGCAGCGUUCGGUGGCGCGAUAGCGCUAACGUUCUCAACUAUGACACGCAAAACGCGUGCUCCGUUGAAUGGAGUUUAUCAUG [A12C C57U C76G C96U]	≤ -4.2
GGAUCUUCUCGCUCUAACAUAAAAGACAAAUCUGCCACAAAGCUUGAGAGCAUCUUCGGAUGCAGAGGCGGCAGCCUUUGGUGUCGCGAUAGCGCCAACGUUCUCAACUAUGACACGCAAAACGCGUGCUCCGUUGAAUGGAGUUUAUCAUG [A12C A20U C79U G84U]	≤ -4.2
GGAUCUUCUCGCUCUAACAAAAAAGACAAAUCUGCCACAAAGCUUGAGAGCCUCUUCGGAUGCAGAGGCGGCAGCCUUCGGUGGCGUGCUAGCGCCAACGUUCUCAACUAUGACACGCAAAACGCGUGCUCCGUUGAAUGGAGUUUAUCAUG [A12C A52C C87U A89C]	-3.43
GGAUCUUCUCGCUCUAACAAAAAAGACAAAUCUGCCGCAAAGCUUCAGAGCAUCUUCGGAUGCAGAGGCGGCAGCCUUCGGUGGCGCGAUAGCGCGAACGUUCUCAACUGUGACAUGCAAAACGCGUGCUCCGUGGAAUGGAGUUUAUCAUG [A12C A37G G46C C96G A110G C116U U135G]	≤ -4.2
GGAUCUUCUCGCUCUAACAAAAAAGACAAAUCUGCCCCAAAGCUUGAGAGCACCUUCGGAUGCAGAGGCGGCAGCCUUCGGUGGCUCGAUAGCGCCGACGUUCUCAACUAUGUCACGCAAAACGCGUGCUCCGUUGAAUGGAGUUUAUCAUG [A12C A37C U53C G86U A97G A113U]	≤ -4.2
GGAUCUUCUCGCUCUAACAAAAAAGACAAAUCUGCCACAAAGCUUGAGAGCCUUUUCGGAUGCAGAGGCGGCAGCCUUCGGUGGCGCGAUAGCGCAAACGUUCUCAACUAUGACACGCAAAACGCGUGCUCCGUUGAAUGGAGUUUAUCAUG [A12C A52C C54U C96A]	-3.95
GGAUCUUCUCGCUCUGACAAAAAAGACAAAUCUGCCACUAAGCUUGAGAGCAUCUUCGGAUGCAGAGGCGGCAGCCUUCGGUGGCGCGAUCGCGCCAACGUUCUCAACUAUGACACGCAAAACGCGUGCUCCGUUGAAUGCAGUUUAGCAUG [A12C A16G A39U A91C G141C U148G]	≤ -4.2
GGAUCUUCUCGCUCUAACAAAAAAGAUAAAUCUGUCACAAAGCUUGAGAGCCUCUUCGGAUGCAGAGGCGGCAGACUUCGGUGGCGCGAUAGCGCCAACGUUCUCAACUAUGACCCGCAAAACGCGUGCUCCGUUGAAUGGAGUUUAUCAUG [A12C C27U C35U A52C C75A A115C]	≤ -4.2
GGAUCUUCUCGCUCUAACAAAAAAGACAAAUCUGCCACAAAGCUUGAGAGCAUCUUCGGAUGCAGAGGCGGCAGCCUUCGGUGGCGCGAUAGCGCCAACGUUCUCAACUAUGGCACGCUAAACGCGUGCUCCGUUGAAUGGAGUAUAUCAUG [A12C A113G A119U U145A]	-3.25
GGAUCUUCUCGCUCUAACAAAAAUGACAAAUCUGCCGCAAAGCUUGAGAGCCUCUUCGGAUGCAGAGGCGGCAGUCUUCGGUGGCGCGAUAGUGCCAACGUUCUCAACUAUGACACGCAAAACGCGUGCUCCGUUGAAUGGAGUUUAUCAUG [A12C A24U A37G A52C C75U C93U]	≤ -4.2
GGAUCUUCUCGCUCUAACACAAAAGGCAAAUCUGCCACAAAGCUUGAGAGCAUCUUCGGAUGCAGAGGCGGCAGCCUUCGGUGGCGCGAUAGCGCCAACGUUCUCAACUAUGACACGCAAAACGCGUGCUCCGUUGAAUGGAGUUUAUCAUG [A12C A20C A26G]	≤ -4.2
GGAUCUUCUCGCUCUAACAAAAAAGACAAAUCUGCCACAAAGCUUGAGAGCAUCUUCGGAUGCAGAGGCGGCAGCCUUCGGUGGCGAGAUAGCGCCAACGUUCUCAACUAUGACACGCAAAACGCGUGCCCCGUUGAAUGGAGUUUAUCAUG [A12C C87A U130C]	≤ -4.2
GGAUCUUCUCGCUCUAACAAAAAAGACAAAUCUGCCACUAAGCUUGAGAGCAUCUUCGGAUGCAGAGGCGGCAGCCUUCGGUGGCGCCAUAGCGCCAACGUUCUCAACUAUGACCCGCAAAACGCAUGCUCCGUUGAAUGGAGUUUAUCAUG [A12C A39U G88C A115C G126A]	≤ -4.2
GGAUCUUCUCUAUCUAACAAAAAAGACAAAUCUGCCACAAAGCUUGAGAGCAACUUCGGAUGCAGAGGCGGCAGCCUUCGGUGGCGCGAUAGCGCCAACGUUCUCAACUAUGACACGCAAAACGCGUGCUCUGUUGAAUGGAGUUGAUCAUG [G11U U53A C132U U146G]	-3.51
GGAUCUUCUCGCUCUAACAAAAAAGACAAAUCUGCCACAAAGUUUGAGAGCCUCUUCGGAUGCAGAGGCGGCAGCCUUCGGUGUCGCGAUAGGGCCAACGUUCUCAACUAUGACACGCAAAACGCGUGCUCGGUUGAAUGGAGUUUAUCAUG [A12C C43U A52C G84U C93G C132G]	≤ -4.2

Variant	polymerase ribozyme fitness (log ratio)
GGAUCUUCUCGCUCUCACAAAAAAGACAAACGUGCCACAAAGCUUGAGAGCAACUUCGGAUGCAGAGGCGGCAGCCUUCGGUGGCGCGAUAGGGCCAACGUUCUCAACUAUGACACGGAAAACGCGUGCUCCGUUGAAUGGAGUUUAUCACG [A12C A16C U31C C32G U53A C93G C118G U151C]	≤ -4.2
GGAUCUUCUCGCUCUAACAAAAAAGACAAAUCUGCCACAAAGCUUGAGAGCAUCUUCGGAUGCAGAGGCGGCAGCCUUCGGUGGCGCGAUAGAGCCAACGUUCUCAACUAUGACACGCAAAACGCGUGCUCCGUUGAAUGGAGUUUAUCAUG [A12C C93A]	-2.68
GGAUCUUCUCGCUCUAACAAAAAAGACAAAUCUGCCACAAAGCUUGAGAGCGUCUUCGGAUGCAGAGUCGGCAGCCUUCGGUGGCGCGAUAGCGCCAUCGUUCUCAACUAUGACACGCAAAACGCGUGCUCCGUUGAAUGGAGUUUAUCAUG [A12C A52G G68U A98U]	-4.19
GGAUCUUCUCUAUCUAACAAAAAAGACAAAUCUGCCACAAAGCUUGAGAGCAUCUUCGGAAGCAGAGGCGGCAGCCUUCGGUGGCGUGAUAGCGCCAACGUUCUCAACUAUGACACGCAAAACGCGUGCUCCGUUGAAUGGAGUUUAUCAUG [G11U U61A C87U]	-3.78
GGAUCUUCUCGCUCUAACAAAAAAUACAAAUCUGCCACAAAGCUUGAGAGGAUCUUCGGAUGCAGAGGCGGGAGCCUUCGGUGGCGCGAUAGCGCCAACGUUCUCAACUAUGACACGGAAAACGCGUGCUCCGUUGAAUGGAGUUUAUCAUG [A12C G25U C51G C72G C118G]	≤ -4.2
GGAUCUUCUCGCUCUAACAAAAAAGACAAGUCUGCCAAAAAGCUUGAGAGAAUCUGCGGAUGCAGAGGCGGCAGCCUUCGGUGGGGCGAUAGCGUCAACGUUCUCGACUAAGACACGCAAAACGCGUGCUCCGUUGAAUGGAGUUUAUCAUG [A12C A30G C38A C51A U56G C85G C95U A106G U111A]	≤ -4.2
GGAUCUUCUCUAUCUAACAAAAAAGACAAAUCUGCCACAAAGCUUGAGAGCAUCUUCGGAUGCAGAGGCGGCAGCCUUCGGUGGCGCGAUAGCGCCAACGUUCGCAACUAUGACACGCAAAACGCGUGCUCCGUUGAAUGGAGUUUAUCAUG [G11U U104G]	-1.58
GGAUCUUCUCGCUCUAACAAAAAAGACAAAUCUGCCACAAAGCUUGAGAGCAUUUUCGGAUGCAGAGGCGGCAGCCUUCGGUGGCGCGAUUGCGCCAACGUUCUCAACUAUGACACGCAAAACGCGUGCUCCGUUGAAUGGAGUUUAUCAUG [A12C C54U A91U]	≤ -4.2
GGAUCUUCUCGCUCUUACAAAAAAGACAAAUCUGCCACAAAGCUUGAGAGCAUCUUCGGAUGCAGAGGCGGCAGCCUUCGGUGGCGCGAUAGCGCCAACGUUCUCAACUAUGACACGCAAAACGCGUGCUCCGUUGAAUGGAGUGUAUCAUG [A12C A16U U145G]	-2.26
GGAUCUUCUCGCUCUAACAAAAAAGACAAAUCUGCCAUAAAGCUUGAGACCAACGUCGGAUGCAGAGGCGUCAGCCUUCGGUGGCGCGAUAUCGCCAACGUUCUCAACUAUGACACGCAAAACGCGUGCUCCGUUGAAUGGAGUUUACCAUG [A12C C38U G50C U53A U55G G71U G92U U148C]	≤ -4.2
GGAUCUUCUCGCUCUAACAAAAAAGACAAAUCUGCCACAAAGCUUGAGAGCAUUUUCGGAUGCAGAGGCGGCAGCCUUCGGUGGCGCGAUAGCGCCAACGUUCUCAACUAUGACACGCAAAACGCGUGCUCCGUUGAAUGGAGUUUAUCAUG [A12C C54U]	-0.207
GGAUCUUCUCGCUCUAACAAAAAAGACAAAUCUGCCACAAAGCUUGAGAGCAUCUUCGGAUGCAGAGGCGGCAGCCUUCGGUGGCGCGAUAGCGCCAACGUUCUCAACUAUGGCACGCAAAACGCGUGCUCCGUUGAAUGGAGUUUAUCAUG [A12C A113G]	-2.73
GGAUCUUCUCGCUCUAACAAAAAGGACAAAUCUGCCACAAAGCUUGAGAGCCUCUUCGGCUGCAGAGGCGGCAGCCUUCGGUGGCGCGAUAGCGCCAACGUUCUCAACUAUGACACGCAAAACGCGUGCUCCGUUGAAUGGAGUUUAUCAUG [A12C A24G A52C A60C]	≤ -4.2
GGAUCUUCUCGCUAUAACAAAAAAGACAAUUCUGCCACCAAGCUUGAGAGCAUCUUCCGAUGCAGAGGCGGCAGCCUUCGGUCGCGCGAUAGCGCCAACGUUCUCAACUAUGACACGCAAAACUCGUGCUCCGUUGAAUGGAGUUUAUCAUG [A12C C14A A30U A39C G58C G83C G124U]	≤ -4.2
GGAUCUUCUCGCUCUAACAAAAAAGACAAAUCUGCCACAAAGCUUGAGAGCAUCUUCGGAUGCAGAGGCGGCAGCCUUCGGUGGCGUGAUAGCGCCAACGUUCUCAACUAUGACCCGCAAAACGCGUGCUCCGUUGAAUGGAGUUUAUCAUG [A12C C87U A115C]	-1.97
GGAUCUUCUCGCUCUAACAAAAAAGACAAAUCUGCCACAAAGCUUGAGAGCAUCUUCGGAUGCAGAGGCGGCAGCCUUCGGUGGCGCGAUAGCGCCAACGUUCUCAACUAUGAUACGCAAAACGCGUGCUCCGUUGAAUGGAGUUUAUCAUG [A12C C114U]	-2.51
GGAUCUUCUCGCUCUAACAAAAAAGACAAAUCUGCCACAAAGCUUGAGAGCAUCUUCGGAUGCAGAGGCGGCAGCCUUCGGUGGCGCGAUAGCGCCAAUGUUCUGAACUAUGACACGCAAAACGCGUGCUCCGUUGAAUGGAGUUUAUCAUG [A12C C99U C105G]	≤ -4.2
GGAUCUUCUCGCUCUAACAAAAAAGACAAAUCUGUCACAAAGCUUGAGCGCAUCUUCGGAUGCUGAGGCGGCAGCCUUCGGUGGCGCGAUAGCGUCAACGUUCUCAACUAUGACACGCAAAAUGCGUGCUCCGUUGAAUGGAGUUUAUCAUG [A12C C35U A49C A64U C95U C123U]	≤ -4.2
GGAUCUUCUCGCUCUAACAACACAGACAAAUCUGCCACAAAGCUUGAGAGCAUCUUCGGAUGCAGAGGCGGCAGCCUUCGGUGGCGCGAUAGCGCCAACGUUCUCAACUAUGACACGCAAAACGCGUGCUCCGUUAAAUGGAGUUUAUCAUG [A12C A21C A23C G136A]	≤ -4.2

— the RNAGym collection of RNA variant scans (doi:10.1073/pnas.2313332121)
